We go through one molecule from publication doi:10.1101/2024.04.17.589974 (bioRxiv, 2024).

Experiment [1] addresses T1, VE-cadherin (wild type, mouse) (mouse (endogenous in lung of C57BL/6 …, UniProt P55284 46-784)).
T1 sequence (looked up): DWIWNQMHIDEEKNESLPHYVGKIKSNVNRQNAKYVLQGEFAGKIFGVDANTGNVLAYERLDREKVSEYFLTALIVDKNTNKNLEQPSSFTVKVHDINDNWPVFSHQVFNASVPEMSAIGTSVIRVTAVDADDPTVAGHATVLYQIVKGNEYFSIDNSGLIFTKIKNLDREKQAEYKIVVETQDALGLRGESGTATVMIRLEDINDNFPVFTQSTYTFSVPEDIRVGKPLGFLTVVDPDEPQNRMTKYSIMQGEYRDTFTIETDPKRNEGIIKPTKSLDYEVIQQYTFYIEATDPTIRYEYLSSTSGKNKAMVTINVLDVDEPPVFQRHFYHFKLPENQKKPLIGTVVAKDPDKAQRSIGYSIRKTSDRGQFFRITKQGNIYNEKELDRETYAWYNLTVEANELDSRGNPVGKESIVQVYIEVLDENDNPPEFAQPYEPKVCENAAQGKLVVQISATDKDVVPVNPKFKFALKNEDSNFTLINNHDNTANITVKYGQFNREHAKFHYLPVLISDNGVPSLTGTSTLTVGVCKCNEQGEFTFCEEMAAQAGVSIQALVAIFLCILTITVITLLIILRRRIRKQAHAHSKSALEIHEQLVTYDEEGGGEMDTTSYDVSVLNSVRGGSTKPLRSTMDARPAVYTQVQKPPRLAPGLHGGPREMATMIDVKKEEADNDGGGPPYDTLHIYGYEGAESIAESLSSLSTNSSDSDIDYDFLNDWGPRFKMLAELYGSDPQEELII
Put plainly: co-IP.

Experiment [2] deals with T2, Y685F-VE-cadherin (knock-in mutant, mouse) (mouse (endogenous in lung of C57BL/6 …, UniProt P55284 46-784, Y685F)).
T2 sequence (looked up): T1 sequence (looked up) with Y640F
Nature of the experiment: co-IP.

Substitutions are numbered along the chain they refer to.

B1: β-catenin (natural protein, UniProt Q02248 1-781, looked up)
chain: MATQADLMELDMAMEPDRKAAVSHWQQQSYLDSGIHSGATTTAPSLSGKGNPEEEDVDTSQVLYEWEQGFSQSFTQEQVADIDGQYAMTRAQRVRAAMFPETLDEGMQIPSTQFDAAHPTNVQRLAEPSQMLKHAVVNLINYQDDAELATRAIPELTKLLNDEDQVVVNKAAVMVHQLSKKEASRHAIMRSPQMVSAIVRTMQNTNDVETARCTAGTLHNLSHHREGLLAIFKSGGIPALVKMLGSPVDSVLFYAITTLHNLLLHQEGAKMAVRLAGGLQKMVALLNKTNVKFLAITTDCLQILAYGNQESKLIILASGGPQALVNIMRTYTYEKLLWTTSRVLKVLSVCSSNKPAIVEAGGMQALGLHLTDPSQRLVQNCLWTLRNLSDAATKQEGMEGLLGTLVQLLGSDDINVVTCAAGILSNLTCNNYKNKMMVCQVGGIEALVRTVLRAGDREDITEPAICALRHLTSRHQEAEMAQNAVRLHYGLPVVVKLLHPPSHWPLIKATVGLIRNLALCPANHAPLREQGAIPRLVQLLVRAHQDTQRRTSMGGTQQQFVEGVRMEEIVEGCTGALHILARDVHNRIVIRGLNTIPLFVQLLYSPIENIQRVAAGVLCELAQDKEAAEAIEAEGATAPLTELLHSRNEGVATYAAAVLFRMSEDKPQDYKKRLSVELTSSLFRTEPMAWNETADLGLDIGAQGEALGYRQDDPSYRSFHSGGYGQDALGMDPMMEHEMGGHHPGADYPVDGLPDLGHAQDLMDGLPPGDSNQLAWFDTDL
On to B1, for which the results for the “β-catenin/VE-cadherin ratio in the VE-cadherin immunoprecipitate (densitometry)” value in experiment [1] and in experiment [2] were 1.14 and 0.798, respectively.
